This is an account of results in patent US6365711 (Harvard, dated 2002).

This test concerns the target T1, Myc-tagged Δ473-534 (Xenopus, UniProt P70056 61-472).
T1 construct: also called deletion of an additional 33 C-terminal amino acids
T1 sequence: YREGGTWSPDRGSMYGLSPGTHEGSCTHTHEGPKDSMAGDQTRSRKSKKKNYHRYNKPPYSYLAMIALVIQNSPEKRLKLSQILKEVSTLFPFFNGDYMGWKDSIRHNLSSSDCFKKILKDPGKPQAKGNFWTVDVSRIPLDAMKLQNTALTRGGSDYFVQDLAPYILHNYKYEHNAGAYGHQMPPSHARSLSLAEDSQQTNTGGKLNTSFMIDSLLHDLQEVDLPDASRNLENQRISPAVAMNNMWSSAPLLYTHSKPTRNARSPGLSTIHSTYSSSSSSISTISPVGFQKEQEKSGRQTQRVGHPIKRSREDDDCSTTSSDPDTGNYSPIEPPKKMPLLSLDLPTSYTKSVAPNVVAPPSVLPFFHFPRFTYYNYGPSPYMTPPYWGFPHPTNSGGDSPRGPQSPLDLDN
The experiment in a line: FAST-1 deletion mutant co-expressed with tagged Smad in Xenopus embryos.

B1: Myc-tagged Smad2 (other, not shown: small tags and cut ends)
chain: MSSILPFTPPVVKRLLGWKKSASGTTGAGGDEQNGQEEKWCEKAVKSLVKKLKKTGQLDELEKAITTQNCNTKCVTIPSTCSEIWGLSTANTIDQWDTTGLYSFSEQTRSLDGRLQVSHRKGLPHVIYCRLWRWPDLHSHHELKAIENCEYAFNLKKDEVCVNPYHYQRVETPVLPPVLVPRHTEILTELPPLDDYTHSIPENTNFPAGIEPQSNYIPETPPPGYISEDGETSDQQLNQSMDTGSPAELSPSTLSPVNHNLDLQPVTYSEPAFWCSIAYYELNQRVGETFHASQPSLTVDGFTDPSNSERFCLGLLSNVNRNATVEMTRRHIGRGVRLYYIGGEVFAECLSDSAIFVQSPNCNQRYGWHPATVCKIPPGCNLKIFNNQEFAALLAQSVNQGFEAVYQLTRMCTIRMSFVKGWGAEYRRQTVTSTPCWIELHLNGPLQWLDKVLTQMGSPSVRCSSMS
notes: Expressed from injected RNA in Xenopus embryos; also called Myc-Smad2
Turning to B1, the binding result is recorded as “no binding”.
